Blank lines part the entries; values can stand above or below the molecule they belong to.
How the values were obtained:
Test in all cases: native MS; nanoESI on a Waters SELECT Series Cyclic IMS (Q-IM-TOF), gentle tuning at low cone voltage; quadrupole-selected charge-reduced precursor, surface-induced dissociation and ion mobility; 160/40 ammonium acetate/triethylammonium acetate; CRP 1 uM, SA 2-3 uM, PhosB 4 uM; TRAP ~1.5 uM complex in 600 mM ammonium acetate with TEAA added for 15+
[1] = molecular target: streptavidin (UniProt P22629)
[2] = molecular target: T1, human recombinant C-reactive protein (human), P02741; settings: remark: other sources report otherwise
T1 chain: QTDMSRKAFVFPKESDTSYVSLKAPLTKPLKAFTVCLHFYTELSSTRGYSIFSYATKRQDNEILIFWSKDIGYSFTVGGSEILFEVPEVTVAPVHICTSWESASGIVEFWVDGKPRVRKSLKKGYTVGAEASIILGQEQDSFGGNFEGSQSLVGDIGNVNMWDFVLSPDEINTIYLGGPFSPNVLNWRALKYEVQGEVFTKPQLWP

[3] = molecular target: the molecule itself

stoichiometry N [1]: 4
Molecule: streptavidin (from UniProt P22629 25-183) (natural protein)

stoichiometry N [2]: 5
B1: human recombinant C-reactive protein, P02741 19-224 (natural protein)
chain: T1 chain

B2: phosphorylase B (enzyme, UniProt P00489 1-843, looked up)
chain: MSRPLSDQEKRKQISVRGLAGVENVTELKKNFNRHLHFTLVKDRNVATPRDYYFALAHTVRDHLVGRWIRTQQHYYEKDPKRIYYLSLEFYMGRTLQNTMVNLALENACDEATYQLGLDMEELEEIEEDAGLGNGGLGRLAACFLDSMATLGLAAYGYGIRYEFGIFNQKICGGWQMEEADDWLRYGNPWEKARPEFTLPVHFYGRVEHTSQGAKWVDTQVVLAMPYDTPVPGYRNNVVNTMRLWSAKAPNDFNLKDFNVGGYIQAVLDRNLAENISRVLYPNDNFFEGKELRLKQEYFVVAATLQDIIRRFKSSKFGCRDPVRTNFDAFPDKVAIQLNDTHPSLAIPELMRVLVDLERLDWDKAWEVTVKTCAYTNHTVLPEALERWPVHLLETLLPRHLQIIYEINQRFLNRVAAAFPGDVDRLRRMSLVEEGAVKRINMAHLCIAGSHAVNGVARIHSEILKKTIFKDFYELEPHKFQNKTNGITPRRWLVLCNPGLAEIIAERIGEEYISDLDQLRKLLSYVDDEAFIRDVAKVKQENKLKFAAYLEREYKVHINPNSLFDVQVKRIHEYKRQLLNCLHVITLYNRIKKEPNKFVVPRTVMIGGKAAPGYHMAKMIIKLITAIGDVVNHDPVVGDRLRVIFLENYRVSLAEKVIPAADLSEQISTAGTEASGTGNMKFMLNGALTIGTMDGANVEMAEEAGEENFFIFGMRVEDVDRLDQRGYNAQEYYDRIPELRQIIEQLSSGFFSPKQPDLFKDIVNMLMHHDRFKVFADYEEYVKCQERVSALYKNPREWTRMVIRNIATSGKFSSDRTIAQYAREIWGVEPSRQRLPAPDEKIP
notes: phosphorylase B, dimer, 197 kDa; This catalogue product is recalled to be from rabbit muscle (surmise); also called PhosB; source: bought: Millipore Sigma (P/N P6635)
stoichiometry N [3]: 2

B3: Tryptophan RNA-binding attenuation protein (TRAP) from Bacillus stearothermophilus (natural protein, UniProt Q9X6J6 1-74, looked up)
chain: MYTNSDFVVIKALEDGVNVIGLTRGADTRFHHSEKLDKGEVLIAQFTEHTSAIKVRGKAYIQTRHGVIESEGKK
notes: also called TRAP bst; source: Mark Foster's lab; copies: 11
stoichiometry N [3]: 11

Source: paper PMC12318544, “Roughhousing with Ions: Surface-Induced Dissociation and Electron Capture Dissociation as Diagnostics of Q-Cyclic IMS-TOF Instrument Tuning Gentleness” (Journal of the American Society for Mass Spectrometry, 2024)
